Assay results taken from paper PMC7261172 (2020).

B1: Cell penetrating APIM-peptide RFSLK (Ac-MD-RFSLK-WKKKRKI-RRRRRRRRRRR) (peptide)
peptide: Ac-MDRFSLKWKKKRKIRRRRRRRRRRR-NH2
modifications: also: TFA salt
B2: Cell penetrating APIM-peptide RWLVK (Ac-MD-RWLVK-WKKKRKI-RRRRRRRRRRR) (peptide)
peptide: Ac-MDRWLVKWKKKRKIRRRRRRRRRRR-NH2
modifications: also: TFA salt

Target: E. coli β-clamp labelled with RED-maleimide dye (MST) (E. coli, UniProt P0A988 1-366, RED-maleimide fluorescent dye (RED-Maleimide Labelling Kit, NanoTemper); site not stated)
Assay: MST

Binder	Kd [µM]
B1	19
B2	35
